Measured values reported in patent US20250339569A1 (3B PHARMACEUTICALS, published 2025).
Starred links: 1 amine or outer side, 2 acyl side, 3 side chain; linkers in the order of their positions; H or OH if unused. Positions of bridges follow the written chain, without caps; N, C: chain ends. Non-standard residues stand in square brackets, D forms with d. Primed or numbered codes have the meaning given here. *: point of attachment. Af3(H-pGlu) = 3-aminophenylalanine with L-pyroglutamyl on the ring amine, O=C1CC[C@@H](C(=O)Nc2cccc(C[C@H](N[*:1])C(=O)[*:2])c2)N1; Af3(Im5) = 3-aminophenylalanine with 1H-imidazole-5-carbonyl on the ring amine, O=C(Nc1cccc(C[C@H](N[*:1])C(=O)[*:2])c1)c1cnc[nH]1; Af3(Oa5) = 3-aminophenylalanine with 1,3-oxazole-5-carbonyl on the ring amine, O=C(Nc1cccc(C[C@H](N[*:1])C(=O)[*:2])c1)c1cnco1; Af3(H2N-Succinyl) = 3-aminophenylalanine with succinamoyl on the ring amine, NC(=O)CCC(=O)Nc1cccc(C[C@H](N[*:1])C(=O)[*:2])c1; Aph(Cp) = 4-aminophenylalanine with cyclopentanecarbonyl on the ring amine, O=C(Nc1ccc(C[C@H](N[*:1])C(=O)[*:2])cc1)C1CCCC1; DOTA(In) = O=C1CN2CCN3CCN(CC(=O)*)CCN(CC2)CC(=O)[O][In]([O]1)[O]C(=O)C3; APAc″ = 2-(4-(amino)piperidin-1-yl)acetic acid, NC1CCN(CC(=O)*)CC1; DOTA = O=C(O)CN1CCN(CC(=O)O)CCN(CC(=O)*)CCN(CC(=O)O)CC1; NGly(3-aminopropyl) = O=C(CN(CCCN[*:3])[*:1])[*:2]; Phe(4-tBu) = CC(C)(C)c1ccc(C[C@H](N)C(=O)O)cc1; Pyridine(2,6-diCH2) = c1cc(C[*:1])nc(C[*:2])c1; mXylylene = c1cc(C[*:1])cc(C[*:2])c1; Orn(Me2) = CN(C)CCC[C@H](N)C(=O)O; αMeL = CC(C)C[C@](C)(N)C(=O)O; AGLU′ = not defined here; Ac6c = NC1(C(=O)O)CCCCC1; Orn = NCCC[C@H](N)C(=O)O; APAc = not defined here; Dab = NCC[C@H](N)C(=O)O; Bn = c1ccc(C*)cc1

B1: 3BP-4046 (peptide)
peptide: Ac-VYCE[dP]KWLDWSC-NH2
modifications: linker 3-12 via mXylylene; lactam 6-9
SMILES: CC(=O)N[C@H](C(=O)N[C@@H](Cc1ccc(O)cc1)C(=O)N[C@H]1CSCc2cccc(c2)CSC[C@@H](C(N)=O)NC(=O)[C@H](CO)NC(=O)[C@H](Cc2c[nH]c3ccccc23)NC(=O)[C@@H]2CC(=O)NCCCC[C@H](NC(=O)[C@H]3CCCN3C(=O)[C@H](CCC(=O)O)NC1=O)C(=O)N[C@@H](Cc1c[nH]c3ccccc13)C(=O)N[C@@H](CC(C)C)C(=O)N2)C(C)C
B2: 3BP-4052 (peptide)
peptide: {DOTA(In)-APAc}-VYCE[dP]KWLEWSC-NH2
modifications: linker 3-12 via mXylylene; lactam 6-9; reading uncertain; also: indium complexed by DOTA
B3: 3BP-3958 (peptide)
peptide: Ac-VYCE[dP][Orn]WLEWSC-NH2
modifications: linker 3-12 via mXylylene; lactam 6-9
SMILES: CC(=O)N[C@H](C(=O)N[C@@H](Cc1ccc(O)cc1)C(=O)N[C@H]1CSCc2cccc(c2)CSC[C@@H](C(N)=O)NC(=O)[C@H](CO)NC(=O)[C@H](Cc2c[nH]c3ccccc23)NC(=O)[C@@H]2CCC(=O)NCCC[C@H](NC(=O)[C@H]3CCCN3C(=O)[C@H](CCC(=O)O)NC1=O)C(=O)N[C@@H](Cc1c[nH]c3ccccc13)C(=O)N[C@@H](CC(C)C)C(=O)N2)C(C)C
B4: 3BP-3960 (peptide)
peptide: Ac-VYCE[dP][Dab]WLEWSC-NH2
modifications: linker 3-12 via mXylylene; lactam 6-9
SMILES: CC(=O)N[C@H](C(=O)N[C@@H](Cc1ccc(O)cc1)C(=O)N[C@H]1CSCc2cccc(c2)CSC[C@@H](C(N)=O)NC(=O)[C@H](CO)NC(=O)[C@H](Cc2c[nH]c3ccccc23)NC(=O)[C@@H]2CCC(=O)NCC[C@H](NC(=O)[C@H]3CCCN3C(=O)[C@H](CCC(=O)O)NC1=O)C(=O)N[C@@H](Cc1c[nH]c3ccccc13)C(=O)N[C@@H](CC(C)C)C(=O)N2)C(C)C
B5: 3BP-3961 (peptide)
peptide: Ac-VYCE[dP]KW[Ac6c]EWSC-NH2
modifications: linker 3-12 via mXylylene; lactam 6-9
SMILES: CC(=O)N[C@H](C(=O)N[C@@H](Cc1ccc(O)cc1)C(=O)N[C@H]1CSCc2cccc(c2)CSC[C@@H](C(N)=O)NC(=O)[C@H](CO)NC(=O)[C@H](Cc2c[nH]c3ccccc23)NC(=O)[C@@H]2CCC(=O)NCCCC[C@H](NC(=O)[C@H]3CCCN3C(=O)[C@H](CCC(=O)O)NC1=O)C(=O)N[C@@H](Cc1c[nH]c3ccccc13)C(=O)NC1(CCCCC1)C(=O)N2)C(C)C

Target: human carbonic anhydrase 9 (CAIX) (human, UniProt Q16790 38-459)
Assay: FACS competition on HT-29 cells, competitor tracer 3BP-2776; category B = pIC50 7.1-8.0
Description: CAIX-expressing human HT-29 colorectal cancer cells (DSMZ, RRID: CVCL_0320) were cultured in McCoys's 5A modified medium (Biochrom, #F1015) including 10% fetal calf serum (FCS), 2 mM L-glutamine, 100 U/ml penicillin and 100 μg/mL streptomycin. Cells were detached with Accutase (Biolegend, #423201) and washed in FACS buffer (PBS including 1% FCS). Cells were diluted in FACS buffer to a final concentration of 500.000 cells per ml. 200 μL of the cell suspension were transferred to a u-shaped non-binding 96-well plate (Greiner) and cells were washed in ice-cold FACS buffer.
When biotinylated compounds were used an additional incubation step with 1 μg/mL APC-Streptavidin (Miltenyi; #130-106-791) in 50 μL FACS buffer for 30 minutes on ice was performed.
Cells were washed twice with ice-cold FACS buffer and analyzed in an Attune NxT flow cytometer (Thermo Fisher). Median fluorescence intensities (MFI) of the APC/Cy5-channel were calculated by Attune NxT software.

pIC50, 7.1 to 8 pic50:
{DOTA-APAc}-VYCE[dP]KWLEWSC-NH2 (linker 3-12 via mXylylene; lactam 6-9; reading uncertain) [3BP-3933]
B1
B2
{DOTA-APAc}-VYCE[dK]SWLEWSC-NH2 (linker 3-12 via mXylylene; lactam 5-9; reading uncertain) [3BP-4115]
{DOTA-APAc}-VYCE[dP]E(AGLU′)WLTWSC-NH2 (linker 3-12 via mXylylene; reading uncertain) [3BP-4120]
{DOTA-APAc}-VYCE[dP]DY(Bn)LTWSC-NH2 (linker 3-12 via mXylylene; not fully specified; reading uncertain) [3BP-4137]
B3
{DOTA-APAc}-VYCE[dP][Orn(Me2)]WLTWSC-NH2 (linker 3-12 via mXylylene; reading uncertain) [3BP-4098]
{DOTA-APAc″}-VYCEG[NGly(3-aminopropyl)]WLEWSC-NH2 (linker 3-12 via mXylylene; lactam 6-9) [3BP-4252]
B4
B5
{DOTA(In)}-YCE[dP]KWLEWSC-NH2 (linker 2-11 via mXylylene; lactam 5-8; also: indium complexed by DOTA) [3BP-4053]
{DOTA-APAc}-VYCE[dP]DW[αMeL]TWSC-NH2 (linker 3-12 via mXylylene; reading uncertain) [3BP-4106]
{DOTA-APAc″}-VYCE[dP]DWLTWSC-NH2 (linker 3-12 via Pyridine(2,6-diCH2)) [3BP-4140]
{DOTA-APAc″}-VYCE[dP]D[Phe(4-tBu)]LTWSC-NH2 (linker 3-12 via mXylylene) [3BP-4160]
{DOTA-APAc″}-VYCE[dP]D[Aph(Cp)]LTWSC-NH2 (linker 3-12 via mXylylene) [3BP-4173]
{DOTA-APAc″}-VYCE[dP]D[Af3(H2N-Succinyl)]LTWSC-NH2 (linker 3-12 via mXylylene) [3BP-4238]
{DOTA-APAc″}-VYCE[dP]D[Af3(Oa5)]LTWSC-NH2 (linker 3-12 via mXylylene) [3BP-4239]
{DOTA-APAc″}-VYCE[dP]D[Af3(Im5)]LTWSC-NH2 (linker 3-12 via mXylylene) [3BP-4240]
{DOTA-APAc″}-VYCE[dP]D[Af3(H-pGlu)]LTWSC-NH2 (linker 3-12 via mXylylene) [3BP-4241]
